# Key:
# Test in all cases: affinity purification with mass spectrometry
# [1] = molecular target: WT PLRV (assembled virions and/or soluble structural proteins CP and RTP, as captured by the α-PLRV antibody) (Potato leafroll virus)
# [2] = molecular target: non-incorporated (soluble) form of the PLRV readthrough protein expressed by the ΔCP mutant (Potato leafroll virus)
# [3] = molecular target: ΔRTC PLRV (virions and soluble structural proteins of the mutant whose RTD lacks the last 218 C-terminal residues) (Potato leafroll virus)
molecule,measurement,setting,value
Potato leafroll virus P3a protein (from UniProt P0DTK2 1-45) (natural protein),fold decrease of P3a (normalised to CP) in ΔP17 APs against WT APs,[1],3.4 fold
Potato leafroll virus P17 movement protein (natural protein) MSMVVYNNQECEEGNPFAGALTEFSQWLWSRPLGNPGAEDAEEEAIAAQEELEFPEDEAQARHSCLQRTTSWATPKEVSPSGRVYQTVRHSRMEYSRPTMSIRSQASYFSSSARPLPPPPVPSLMSWTPIAKYHPSSPTSTSSKLRRAAPKLIKRG,fold increase of P17 (normalised to CP) in ΔCP APs against WT APs,[2],1.8 fold
Potato leafroll virus P1 polyprotein (natural protein) KEAGFLHPAFNFRGTSTMSASSGDYSAAPTPLYKSWALPSSLNLTTQPPPPLTDRSYYELVQALTSKMRLDCQTVGDMTWRHLSEMLFASWNSVKEVSLKAASVTLWAIINIWFGLYWTLARLITLFLWTFSIEALCLILLGCITSLIYKGALSLSEHLPVFLFMSPLKIIWRAAFSKRNYKNERAVEGYKGFSVPQKPPKSAVIELQHENGSHLGYANCIRLYSGENALVTAEHCLEGAFATSLKTGNRIPMSTFFPIFKSARNDISILVGPPNWEGLLSVKGAHFITADKIGKGPASFYTLEKGEWMCHSATIDGAHHQFVSVLCNTGPGYSGTGFWSSKNLLGVLKGFPLEEECNYNVMSVIPSIPGITSPNYVFESTAVKGRVFSDEAVKELEREASEAVKKLARFKSLTDKNWADDYDSDEDYGLEREAATNAPAEKTAQTNSAEKTAPSTSAEKTALTNKPLNGQAAPSAKTNGNSDIPDAATSAPPMDKMVEQIITAMVGRINLSEIEEKIVSRVSQKALQKPKQKKRGRRGGKNKQNSLPPTSTQSTSGAPKKEAAPQASGSAGTSRATTTPAPEAKPSGGKNSAKFTPSWRIKQQDSAGQKPDLKLNSKA,fold increase of P1 (normalised to CP) in ΔRTC APs against WT APs,[3],1.8 fold
